Results as given in paper PMC3239198.
Where two headings read alike, the source gives them in different places.

Key:
[1] = biological target: His-tagged TetR (Tet repressor) (UniProt P04483); test: competition EMSA
[2] = biological target: His-tagged TetR (Tet repressor) (UniProt P04483); test: competition EMSA; remark: listed apart in the source
[3] = biological target: His-tagged TetR (Tet repressor) (UniProt P04483); test: EMSA

His-tagged TetR (Tet repressor), sequence (P04483 whole entry): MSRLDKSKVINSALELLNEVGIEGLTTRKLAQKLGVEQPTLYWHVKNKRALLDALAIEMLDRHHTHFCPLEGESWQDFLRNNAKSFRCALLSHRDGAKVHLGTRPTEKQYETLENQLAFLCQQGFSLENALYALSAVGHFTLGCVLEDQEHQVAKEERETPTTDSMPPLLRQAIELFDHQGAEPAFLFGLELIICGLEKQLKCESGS

Sequence: GGGAGAUACGCGUAUCAAGCAGCAUGUUAUGGGUCAUCACAGACCAGAGAAAAGCUUGAUACGCGAAAGGAG [TetR aptamer 12-1R (pDA1), active]
- Ki [1]: 76 nM
- Ki [2]: 58 nM

Sequence: TTGACACTCTATCATTGATAGAGTTAT (double strand) [tetO dsDNA (ODA68/ODA69)]
- Kd [3]: 60 nM
